# Values of other authors as cited in patent US11147882B2, “Method for preserving and stabilizing proteins for formulations of sanitary, pharmaceutical and cosmetic products” (SANI-RED, S.L., priority 2013, dated 2021).
substance,measurement,setting,value
"EGF: epidermal growth factor, first polypeptide isolated and characterized as a growth factor; rhEGF is the recombinant human form",half-life of rhEGF at 25° C.,"25° C., based on the Arrhenius equation (Yang et al. 2005)",6.93 h
same,half-life at 37 C,"37 °C, pH 7.2",3.47 h
same,"half-life (mean life, useful life) of EGF","EGF normally, published studies",7 h
